Data set [1] deals with T1, EjNAC3 (Eriobotrya japonica (loquat), UniProt A0A2D3HXD3 1-352).
T1 sequence: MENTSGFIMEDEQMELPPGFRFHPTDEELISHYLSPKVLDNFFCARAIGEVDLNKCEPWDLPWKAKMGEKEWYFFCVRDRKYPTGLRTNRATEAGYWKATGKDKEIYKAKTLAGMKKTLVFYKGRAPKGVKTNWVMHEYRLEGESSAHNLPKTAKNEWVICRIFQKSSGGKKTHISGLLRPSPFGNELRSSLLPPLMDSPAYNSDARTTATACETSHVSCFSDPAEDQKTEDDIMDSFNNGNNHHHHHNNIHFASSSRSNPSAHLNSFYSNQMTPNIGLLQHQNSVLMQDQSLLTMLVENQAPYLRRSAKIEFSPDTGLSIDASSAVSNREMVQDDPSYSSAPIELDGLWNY
In words: EMSA; 5 mM Mg2+, poly(dI-dC), biotinylated probe 1 nM (legend; Methods 2 nM); LightShift kit binding buffer, 5 mM MgCl2, 2.5% glycerol, 0.05% NP-40, 50 ng/ul poly(dI-dC), 50 ng protein, 20 min room temperature; 6% native PAGE, 0.5x TBE; pH and salt not given. The note with it: protein: recombinant; tags: His (pET-32a fusion); chain copies: 2; blunt. (In general: Mobility shift assays separate free from complexed probe on a gel.)

Data set [2] addresses T1, EjNAC3. Nature of the data set: competition; cold probe 100 or 300 nM vs 1 nM biotinylated probe; reduces shift; LightShift kit binding buffer, 5 mM MgCl2, 2.5% glycerol, 0.05% NP-40, 50 ng/ul poly(dI-dC), 50 ng protein, 20 min room temperature; 6% native PAGE, 0.5x TBE; pH and salt not given. The note with it: protein: recombinant; tags: His (pET-32a fusion); chain copies: 2; label: none; blunt.

Consider 2 molecules from PMC5853329, “EjNAC3 transcriptionally regulates chilling-induced lignification of loquat fruit via physical interaction with an atypical CAD-like gene”.

B1: EjCAD-like promoter probe (-502 to -454) (dsDNA)
DNA 1: GTCCTATACGTAATCTTATACTCCAAATAAAATTAGGAATGCAGCATAA
DNA 2: TTATGCTGCATTCCTAATTTTATTTGGAGTATAAGATTACGTATAGGAC
As to B1, the binding result in the data set with EjNAC3 [1] was “binds”.

B2: EjCAD-like promoter cold probe (-502 to -454) (dsDNA)
DNA 1: B1 DNA 1
DNA 2: B1 DNA 2
Turning to B2, in the data set with EjNAC3 [2], the binding result is on record as “binds”.
